Experimental data taken from IntAct's records for PubMed 31515488.

B1: Ribose-phosphate pyrophosphokinase 1 (Homo sapiens), P60891 (parent)
chain: MPNIKIFSGSSHQDLSQKIADRLGLELGKVVTKKFSNQETCVEIGESVRGEDVYIVQSGCGEINDNLMELLIMINACKIASASRVTAVIPCFPYARQDKKDKSRAPISAKLVANMLSVAGADHIITMDLHASQIQGFFDIPVDNLYAEPAVLKWIRENISEWRNCTIVSPDAGGAKRVTSIADRLNVDFALIHKERKKANEVDRMVLVGDVKDRVAILVDDMADTCGTICHAADKLLSAGATRVYAILTHGIFSGPAISRINNACFEAVVVTNTIPQEDKMKHCSKIQVIDISMILAEAIRRTHNGESVSYLFSHVPL
partner: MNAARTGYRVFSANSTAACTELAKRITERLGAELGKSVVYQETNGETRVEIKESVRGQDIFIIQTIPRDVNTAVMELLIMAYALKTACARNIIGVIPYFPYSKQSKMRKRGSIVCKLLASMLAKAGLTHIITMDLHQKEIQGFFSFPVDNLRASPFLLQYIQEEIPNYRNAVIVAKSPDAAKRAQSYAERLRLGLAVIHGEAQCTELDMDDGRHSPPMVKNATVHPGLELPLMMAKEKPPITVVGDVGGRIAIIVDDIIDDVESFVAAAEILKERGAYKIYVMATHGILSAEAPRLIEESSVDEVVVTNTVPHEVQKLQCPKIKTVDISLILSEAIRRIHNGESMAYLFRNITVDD
B2: Ribosome biogenesis protein SLX9 homolog (Homo sapiens), Q9NSI2 (parent)
chain: MGKVRGLRARVHQAAVRPKGEAAPGPAPPAPEATPPPASAAGKDWAFINTNIFARTKIDPSALVQKLELDVRSVTSVRRGEAGSSARSVPSIRRGAEAKTVLPKKEKMKLRREQWLQKIEAIKLAEQKHREERRRRATVVVGDLHPLRDALPELLGLEAGSRRQARSRESNKPRPSELSRMSAAQRQQLLEEERTRFQELLASPAYRASPLVAIGQTLARQMQLEDGGQL
partner: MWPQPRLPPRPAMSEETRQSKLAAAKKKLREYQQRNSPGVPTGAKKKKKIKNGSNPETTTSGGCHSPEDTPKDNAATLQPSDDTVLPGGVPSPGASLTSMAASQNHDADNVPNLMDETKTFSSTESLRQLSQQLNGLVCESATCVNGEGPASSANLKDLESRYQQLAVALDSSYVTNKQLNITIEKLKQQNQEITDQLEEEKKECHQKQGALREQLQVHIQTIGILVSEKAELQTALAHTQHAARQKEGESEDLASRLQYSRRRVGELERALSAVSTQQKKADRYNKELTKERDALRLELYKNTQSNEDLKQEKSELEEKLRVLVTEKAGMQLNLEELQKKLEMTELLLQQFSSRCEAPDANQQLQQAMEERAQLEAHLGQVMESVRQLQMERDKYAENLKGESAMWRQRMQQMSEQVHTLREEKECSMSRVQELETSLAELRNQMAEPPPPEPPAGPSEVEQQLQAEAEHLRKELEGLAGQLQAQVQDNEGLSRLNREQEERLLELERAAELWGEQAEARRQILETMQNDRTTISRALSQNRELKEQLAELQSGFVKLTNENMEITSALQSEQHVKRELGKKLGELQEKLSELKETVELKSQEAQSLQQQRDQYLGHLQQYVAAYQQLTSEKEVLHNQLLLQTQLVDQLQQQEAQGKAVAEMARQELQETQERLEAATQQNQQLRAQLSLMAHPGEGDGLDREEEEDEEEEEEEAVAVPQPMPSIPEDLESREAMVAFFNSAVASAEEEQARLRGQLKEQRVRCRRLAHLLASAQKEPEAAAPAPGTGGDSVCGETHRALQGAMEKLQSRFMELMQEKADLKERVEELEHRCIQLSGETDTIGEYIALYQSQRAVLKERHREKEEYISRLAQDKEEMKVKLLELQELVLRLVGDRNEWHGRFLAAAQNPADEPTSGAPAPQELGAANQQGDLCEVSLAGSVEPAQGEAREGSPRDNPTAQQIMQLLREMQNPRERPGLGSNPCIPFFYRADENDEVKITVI
B3: Notch homolog 2 N-terminal-like protein A (Homo sapiens), Q7Z3S9 (parent)
chain: MCVTYHNGTGYCKCPEGFLGEYCQHRDPCEKNRCQNGGTCVAQAMLGKATCRCASGFTGEDCQYSTSHPCFVSRPCLNGGTCHMLSRDTYECTCQVGFTGKECQWTDACLSHPCANGSTCTTVANQFSCKCLTGFTGQKCETDVNECDIPGHCQHGGTCLNLPGSYQCQCLQGFTGQYCDSLYVPCAPSPCVNGGTCRQTGDFTFECNCLPETVRRGTELWERDREVWNGKEHDEN
partner: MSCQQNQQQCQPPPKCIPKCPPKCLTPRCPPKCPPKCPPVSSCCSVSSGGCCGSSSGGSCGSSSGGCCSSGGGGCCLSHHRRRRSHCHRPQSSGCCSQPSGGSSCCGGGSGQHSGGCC
B4: Tuftelin-interacting protein 11 (Homo sapiens), Q9UBB9 (parent)
chain: MSLSHLYRDGEGRIDDDDDERENFEITDWDLQNEFNPNRQRHWQTKEEATYGVWAERDSDDERPSFGGKRARDYSAPVNFISAGLKKGAAEEAELEDSDDEEKPVKQDDFPKDFGPRKLKTGGNFKPSQKGFAGGTKSFMDFGSWERHTKGIGQKLLQKMGYVPGRGLGKNAQGIINPIEAKQRKGKGAVGAYGSERTTQSMQDFPVVDSEEEAEEEFQKELSQWRKDPSGSKKKPKYSYKTVEELKAKGRISKKLTAPQKELSQVKVIDMTGREQKVYYSYSQISHKHNVPDDGLPLQSQQLPQSGKEAKAPGFALPELEHNLQLLIDLTEQEIIQNDRQLQYERDMVVNLFHELEKMTEVLDHEERVISNLSKVLEMVEECERRMQPDCSNPLTLDECARIFETLQDKYYEEYRMSDRVDLAVAIVYPLMKEYFKEWDPLKDCTYGTEIISKWKSLLENDQLLSHGGQDLSADAFHRLIWEVWMPFVRNIVTQWQPRNCDPMVDFLDSWVHIIPVWILDNILDQLIFPKLQKEVENWNPLTDTVPIHSWIHPWLPLMQARLEPLYSPIRSKLSSALQKWHPSDSSAKLILQPWKDVFTPGSWEAFMVKNIVPKLGMCLGELVINPHQQHMDAFYWVIDWEGMISVSSLVGLLEKHFFPKWLQVLCSWLSNSPNYEEITKWYLGWKSMFSDQVLAHPSVKDKFNEALDIMNRAVSSNVGAYMQPGARENIAYLTHTERRKDFQYEAMQERREAENMAQRGIGVAASSVPMNFKDLIETKAEEHNIVFMPVIGKRHEGKQLYTFGRIVIYIDRGVVFVQGEKTWVPTSLQSLIDMAK
partner: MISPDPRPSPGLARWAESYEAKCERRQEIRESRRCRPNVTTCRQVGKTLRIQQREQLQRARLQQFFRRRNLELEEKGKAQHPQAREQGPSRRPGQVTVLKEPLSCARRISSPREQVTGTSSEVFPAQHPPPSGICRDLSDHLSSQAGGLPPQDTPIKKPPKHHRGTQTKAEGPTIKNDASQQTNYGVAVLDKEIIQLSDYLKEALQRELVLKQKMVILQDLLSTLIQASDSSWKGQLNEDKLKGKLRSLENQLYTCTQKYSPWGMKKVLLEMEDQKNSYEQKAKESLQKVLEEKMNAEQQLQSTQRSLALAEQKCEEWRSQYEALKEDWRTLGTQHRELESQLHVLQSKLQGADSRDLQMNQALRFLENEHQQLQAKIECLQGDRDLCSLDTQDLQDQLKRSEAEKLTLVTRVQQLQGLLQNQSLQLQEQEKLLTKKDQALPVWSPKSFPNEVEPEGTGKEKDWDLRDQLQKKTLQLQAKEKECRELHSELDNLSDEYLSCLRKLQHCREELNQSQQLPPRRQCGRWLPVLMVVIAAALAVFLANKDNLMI

Variants of: B1
Conditions: with kpra_human PRPSAP1, Q14558

Row | effect of a mutation on the interaction | Variant
1 | with no effect | E43D

Variants of: B2
Conditions: with goga2_human GOLGA2, Q08379

Row | effect of a mutation on the interaction | Variant
2 | disrupting interaction strength | T138M

Variants of: B3
Conditions: with lce1b_human LCE1B

Row | effect of a mutation on the interaction | Variant
3 | with no effect | A115T
4 | with no effect | R74Q

Variants of: B4
Conditions: with TRAF3IP3, Q9Y228

Row | effect of a mutation on the interaction | Variant
5 | with no effect | M140V
